Data published in the DeepSol protein solubility set.

assay: soluble on expression in E. coli; label from the status in PepcDB or PDB records

Soluble on expression in E. coli, soluble:
GMDISLLKQVVQSTNKIALSTAVNNEADVKIVNFVWYEAQPDTLYFSSVKTSPALKVYDQNPDIAFITIPNDGTAGNPYLRAQHVKLQRSTKTMTDLLPQYLETVPNYQQVWDAIGSTLVVFELKLTDLFVDAGVGGEKQTLTFN, GMDRTLTHQPQEYAVSVSVGEVKLKGNLVIPNGATGIVLFAHGSGSSRYSPRNRYVAEVLQQAGLATLLIDLLTQEEEEIDLRTRHLRFDIGLLASRLVGATDWLTHNPDTQHLKVGYFGASTGGGAALVAAAERPETVQAVVSRGGRPDLAPSALPHVKAPTLLIVGGYDLPVIAMNEDALEQLQTSKRLVIIPRASHLFEEPGALTAVAQLASEWFMHYLR, GMDVEIVEELSKMLAGRKAVTEEEIRRKAIRCALKIMGARLVGIDAELIEDVTCSLIDCPITLKSLHFSEKVKIGDVLFYHPHVIKPEKEDFEQAYFEYKQSKKFLDAFDIMREVTDRFFEGYEAEGRYMRKYTKDGRNYYAFFSTIDDTFEDVDIHLRMVDEVDGDYVVIVPTENELNPFLKFFKQYSEDAKRAGLKIWVVNPDEKTIDPFIGYPKDFRLLKGFKNPKAAALVSAYWRVTVTDLD, GMGMEHKTYEADLFVWCQQQADGLRALSRSRRDLPDDLDLEHIAEEIEDMGRSELREATSLVRQICVRVIMAMSAPEAPDRARWRSEVVSWHNLLLDTITPGMIDRIDIGVIWRRAVSEAKAALIEINVAPQAGLSFQAPLPADHFLDEDFDYDATVARLGPTA, GMGQQESTLGGAAGEPRSRGHAAGTSGGPGDHLHATPGMFVQHSTAIFSDRYKGQRVLGKGSFGEVILCKDKITGQECAVKVISKRQVKQKTDKESLLREVQLLKQLDHPNIMKLYEFFEDKGYFYLVGEVYTGGELFDEIISRKRFSEVDAARIIRQVLSGITYMHKNKIVHRDLKPENLLLESKSKDANIRIIDFGLSTHFEASKKMKDKIGTAYYIAPEVLHGTYDEKCDVWSTGVILYILLSGCPPFNGANEYDILKKVEKGKYTFELPQWKKVSESAKDLIRKMLTYVPSMRISARDALDHEWIQTYTKEQISVDVPSLDNAILNIRQFQGTQKLAQAALLYMGSKLTSQDETKELTAIFHKMDKNGDGQLDRAELIEGYKELMRMKGQDASMLDASAVEHEVDQVLDAVDFDKNGYIEYSEFVTVAMDRKTLLSRERLERAFRMFDSDNSGKISSTELATIFGVSDVDSETWKSVLSEVDKNNDGEVDFDEFQQMLLKLCGN, GMIEKVYEFKRDAKTKVVEKLVNTEHVQINHIVLPRGEQMPKHYSNSYVHLIIIKGEMTLTLEDQEPHNYKEGNIVYVPFNVKMLIQNINSDILEFFVVKAPHPKKLNAPEDPIKCE, GMKPLKEVVGAYLALSDAQRQLVAGEYDEAAANCRRAMEISHTMPPEEAFDHAGFDAFCHAGLAEALAGLRSFDEALHSADKALHYFNRRGELNQDEGKLWISAVYSRALALDGLGRGAEAMPEFKKVVEMIEERKGETPGKERMMEVAIDRIAQLGAS, GMLKILATQFNGKLQTLTKQEDELFDVVRLLAQALVGQGKVYLDAYGEFEGLYPMLSDGPDQMKRVTKIKDHKTLHAVDRVLIFTPDTERSDLLASLARYDAWHTPYSIITLGDVTETLERSIAPLALKFDKGLLPAEDGSRHGLPSLALGAFLLTHILTQLQEMTEEWE, GMLPDDVNQADVLADVTAAFYRYEKALTGNDVAVLDELFWHDEKTVRYGAGENLYGIEEIRAFRLARPSAGLDRALRNTVITTYGHDMAVASTEFTRTGSTKIGRQMQTWVKMPEGWRIVAAHVSLMSE, GMLSNLESSIQSPKSGEYQCLAALNLYDSPECTSLATQAAVGRHLQVTSNQQGAAVEVCLCEDDYPGWLSLGDLGLLKPATVLYQAKSFSESEIKKLLPGAIAFTQKAMQQSNYYLWGGTVGPNYDCSGLMQAAFVSVGIWLPRDAYQQEAFTQAITIDELAPGDLVFFGTPVKATHVGLYLGDGCYIHSSGKAQGRDGIGIDILSEQGDVVSRSYYQQLRGAGRVVKSYKPQRH, GMSAPVTLINPFKVPADKLEAAIEYWEAHRDFMAQQPGYLSTQLHQSIDEGATYQLINVAIWQSEADFYQAAQKMRQALGHVQVEGLCGNPALYRVIRT, GMSARDVFHEVVKTALKKDGWQITDDPLTISVGGVNLSIDLAAQKLIAAERQGQKIAVEVKSFLKQSSAISEFHTALGQFINYRGALRKVEPDRVLYLAVPLTTYKTFFQLDFPKEIIIENQVKMLVYDVEQEVIFQWIN
